Assays:
[1] = target: Lon-His (C. crescentus) (UniProt B8GX12)
[2] = target: Lon-His (C. crescentus) (UniProt B8GX12); remark: listed apart in the source
[3] = target: Lon^EQ (Lon E420Q, Walker-B mutant) (C. crescentus) (UniProt B8GX12); experiment: native MS; purified proteins buffer exchanged into 200 mM ammonium acetate pH 8.0, mixed in equimolar ratios (LarA also in 3-fold excess); nano ESI, Waters Synapt G2, source temperature 30 °C
[4] = target: the molecule itself; experiment: as above

6xHis-tagged SciP (natural protein)
Km of Lon-mediated His-SciP degradation in vitro, in the presence of 2 µM LarA (0.05 µM Lon-His hexamer) [1]: 1.8 µM
Km of Lon-mediated His-SciP degradation in vitro, without LarA (0.05 µM Lon-His hexamer) [1]: 9.3 µM

LarA, purified (natural protein)
rate of Lon-mediated His-SciP degradation against LarA concentration (0 to 15 µM), highest at 2 µM LarA, compared with reactions lacking LarA [2]: 5.5 fold
stoichiometry N (LarA molecules per Lon^EQ hexamer) [3]: 6

B1: Lon^EQ (Lon E420Q, Walker-B mutant) (enzyme, C. crescentus, UniProt B8GX12 1-799, looked up)
chain: MSELRTLPVLPLRDIVVFPHMVVPLFVGRDKSVRALEEVMRGDKQILLVTQKNSADDDPAPGDIFEVGVLATVLQLLKLPDGTVKVLVEGKARAAVVSFTDQESYYEAQIGEVSEDDGAGPEAEALSRAVVEQFENYVKLNKKVPPEALASIPQIAEPGKLADSIAAHLSVKIGDKQNLLEIFDVVKRLEKVFALMEGEISVLQVEKKIRSRVKRQMEKTQREYYLNEQMKAIQRELGDPDDARDELIDLEKRIKKTKLSKEARTKAESELKKLRNMSPMSAESTVVRNYLDWLLSIPWGKAKTKKIDLVESEGILDADHYGLEKVKERILEYLAVQARTNSLKGPILCLVGPPGVGKTSLGKSIAKATGREFVRMSLGGVRDEAEIRGHRRTYIGSMPGKVVQSMKKAKTTNAFVLLDQIDKMGSDYRGDPASALLEVLDPSQNSTFGDHYLEVDYDLSQVMFVTTANSLNMPQPLLDRMEIIRIPGYTEDEKLEIAKRHILPKLAKDHGLKPAEFIVPDKAIRDLIRYYTREAGVRSLERELGALARKTVRDLAREKVASITIDDERLAKYAGVKKYRYGETDEVDQVGIVTGLAWTEFGGDILTIEAVKMPGKGRMQITGNLKDVMKESIAAANSYVRSRALQFGIKPPVFEKTDVHIHVPDGATPKDGPSAGIAMALAMVSVLTGIPIRKDIAMTGEITLRGRVTAIGGLKEKLLAALRSGVKTVLIPQENEKDLADVPQTVKDGLEIIPVSTVDEVLKHALTGPLTPVEWNEAEEPITTSAKKDDGDSDAMLTH
notes: predicted molecular weight of the hexamer 529,458 Da; Deficient in ATP hydrolysis; source: E. coli BL21-SI/pCodonPlus, purified (Talon, Ulp1 cleavage, anion exchange)
stoichiometry N [4]: 6

From PMC10665427, “The heat shock protein LarA activates the Lon protease in response to proteotoxic stress” (Nature Communications, 2023)
